Assay results reported in publication PMC9822811.

Biological target: recombinant SARS-CoV-2 RBD of original WT strain (SARS-CoV-2) (UniProt P0DTC2)
Assay: SPR

REGN-10933
Kd: 0.576 nM
